Source: the nanobody polyreactivity screen of Harvey et al. (2022)

Test: yeast display, Sf9 membrane polyspecificity reagent, FACS + sequencing; frameworks hold sequencing errors
How it was run: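 Synthetic nanobody libraries on Saccharomyces cerevisiae BJ5465 were galactose-induced for 36–48 hours, stained 1 hour at 4 °C with 10% biotinylated, detergent-solubilized Sf9 membrane reagent and enriched on streptavidin microbeads. FACS then separated cells into low and high (top ~1%) gates by anti-HA (expression) and streptavidin (reagent binding) fluorescence. Genes were colony-PCR amplified, MiSeq 2 × 250 sequenced and CDR-length filtered. A clone's polyreactivity label is that of its gate of origin.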

| Sequence | polyreactivity (PSR sort gate) |
| --- | --- |
| QVQLVESGGGLVQAGGSLRLSCAASGSTIFLYDMGWYRQAPGKESELVAAITISGGSTYYADSVKGRFTISRDNAKNTVDLQMNSLKPEDTAVYYCAADRQWISLFGYPDGYDYWGQGTQVTVSS | high polyreactivity |
| QVQLVESGGGLVQAGGSLRLSCAASGSTIGFYAMGWYRQAPGKERELVAANSWTGGGTYYADSVKGRFTISRDNAKITVYLQMNSLKPEDTAVYYCARLYYFNGDFWGQGTQVTVSS | high polyreactivity |
| QVQLVESGGGLVQAGGSLRLSCAASGSTIGKNVMGWYRQAPGKEREVVAAISARGGRSYYADSVKGRFTISRDIAKNTVYLQMNSLKPEDTAVYYCNTERSYTGTGRYRSSTAYGYWGQGTQVTVSS | high polyreactivity |
| QVQLVESGGGLVQAGGSLRLSCAASGSTIISYAMGWYRQAPGKERELVAAISSGGGRTSYADSVKGRFTISRDNAKNTVYLQMNSLKPEDTAVYYCNTKQLPYAEGYWGQGTQVTVSS | low polyreactivity |
| QVQLVESGGGLVQAGGSLRLSCAASGSTIKSNVLGWYRQAPGKERELVAAISSGDSTYYADSVKGRFTISRDNGKNTVYFQLNSLKPVDTAVFYCAARLGLQLVDTPDNDYWGQGTEVTVSS | low polyreactivity |
| QVQLVESGGGLVQAGGSLRLSCAASGSTILHYAMGWYRQAPGKEREFTYYADSVKGRFTISRDNAKNTVCLQMNSLTPEDTAVYYCNADPAVSGGSIATDEYDYWVQGTQVTVSS | low polyreactivity |
| QVQLVESGGGLVQAGGSLRLSCAASGSTILINAMGWYRQAPGKERELVAAISRDGSTNYADSVKGRFTISRDNAKNTVYLQMNSLKPEDTAVYYCAAVPGISVGRQPGYDYDYWGQGTQVTVSS | low polyreactivity |
| QVQLVESGGGLVQAGGSLRLSCAASGSTIPLYAMGWYRQAPGKERELVAAISRRGGRTYYADSVKGRFTISRDNAKNTVYLQMNSLKPEDTAVYYCATAQGSRVDYWGQGTQVTVSS | high polyreactivity |
| QVQLVESGGGLVQAGGSLRLSCAASGSTIPYYAMGWYRQAPGKERELVARIRWNGDSTFYADSVKGRFTISRDNAKNTVYLQMNSLKTEDSAVYYCAAYGKRLGERLNYYYWGQGTQVTVSS | high polyreactivity |
| QVQLVESGGGLVQAGGSLRLSCAASGSTIQQYAMGWYRQAPGKEREFVAAISWRGGRTYYADSVKGRFTISRDNAKNTVSLQMNSLKPEDTAVYYCAVDPSIYRLSAYYYDYWGQGTQVTVSS | low polyreactivity |
| QVQLVESGGGLVQAGGSLRLSCAASGSTIRANAMGWYRQAPGKERELVAAITKNGGSTYYADSVKGRFTISRDNAKNTVYLQMNSLKPEDTAVYYCAARRSSRRPPYYYWGQGTQVTVSS | high polyreactivity |
| QVQLVESGGGLVQAGGSLRLSCAASGSTIRDYAMGWYRQAPGKDRELVAVIDNSGGRTYYADSVKGRFTISRDNAKNTVYLQMNSLKPEDTAVYYCNTRRIAQYGYWGQGTQVTVSS | high polyreactivity |
| QVQLVESGGGLVQAGGSLRLSCAASGSTIRHYAMGWYRQAPGKERELVAAISSGARTYYADSVKGRFTISRDNAKNTVYLQMNSLKPEDTAVYYCAARYNGYAYPYYYWGQGTQVTVSS | high polyreactivity |
| QVQLVESGGGLVQAGGSLRLSCAASGSTIRVNVMGWYRQAPGKERELVAAITTSGGSTYYADSVKGRFTISRDNAKNTVYLQMNSLKPEDTAVYYCNTTYPSGWGPDMDYWGQGTQVTVSS | low polyreactivity |
| QVQLVESGGGLVQAGGSLRLSCAASGSTIRWYAMGWDRQAPGKERELVASITWSGGGTYYADSVKGRFTISRDNAKNTVYLQMNSLKPEDTAVYYCNRRTWRYETRGDDYWGQGTQVTVSS | high polyreactivity |
| QVQLVESGGGLVQAGGSLRLSCAASGSTIRYYAMGWYRQAPGKERELVAAITKSGGSTYYADSVKGRFTISRDNAKKTVYLQMNSLKPEDTAVYYCAAVRRWYYPALSEHDYWGQGTQVTVSS | low polyreactivity |

| Sequence | polyreactivity (PSR sort gate) |
| --- | --- |
| QVQLVESGGGLVQAGGSLRLSCAASGSTIRYYAMGWYRQAPGKERELVAAITKSGGSTYYADSVKGRFTISRDNAKNTVYLQMNSLKPEDTAVYYCAAVRRWYYPALSEHDYWGQGTQVTVSS | low polyreactivity |
| QVQLVESGGGLVQAGGSLRLSCAASGSTISYYAMGWYRQAPGKERELVAGISGSTGTTYYADSVKGRFTISRDNAKNTVYLQMNSLKPEDTAVYYCAKLFPVARPQYGYWGQGTQVTVSS | low polyreactivity |
| QVQLVESGGGLVQAGGSLRLSCAASGSTITHNAMGWYRQAPGKERELVATISSGGSTNYADSVKGRFTISRDNAKNTVYLQMNRLKPEDTAVYYCAKPRYRSHVVYGPASGDDYWGQGTQVTVSS | low polyreactivity |
| QVQLVESGGGLVQAGGSLRLSCAASGSTITQYAMGWYRQAPGKEREFVAAINSRGDSTYYADSVKGRFTISRDNAKNTVYLQMNSLKPEDTAVYYCNADYQTDDDPYGYDYWGQGTQVTVSS | low polyreactivity |
| QVQLVESGGGLVQAGGSLRLSCAASGSTIVDYAMGWYRQAPGKERELVAAITSGDSTNYADSVKGRFTISRDNAKNTVYLLMKSLKPEDTAVYYCAARLRYSFWYWDDYWGQGTQVSVSS | high polyreactivity |
| QVQLVESGGGLVQAGGSLRLSCAASGSTIVRYAMGWNRQAPGKERELVAAISSRGGCTYYADSVKGRFTISRDNAKNTVYLQMNSLKPEDTAVYYCNADYSVGSWGQGTQVTVSS | high polyreactivity |
| QVQLVESGGGLVQAGGSLRLSCAASGSTIVYNAMGWYRQAPGKEREFVAAISWSGGSTYYADSVKGRFTISRDNAKNTVYLQMNSLKPEDTAIYYCAATSRSNGFRYYYWGQGTQVTVSS | high polyreactivity |
| QVQLVESGGGLVQAGGSLRLSCAASGSTIWYYVMGWYRAAPGKERELVAAIRSNDGSTYYADSVKGRFTISRDNAKNTDYLQLNRLKPEDTAVYYCAADDWVYAQEYDYWGQGTQVTVSS | low polyreactivity |
| QVQLVESGGGLVQAGGSLRLSCAASGSTIYDNAMGWSRQAPGKERELVAAITWSVGRTYYADSVKGRFTISRDNAKNTVYLQMNSLKPEDTAVYYCAARYQYYSTYGVTLDYWGQGTQVTVSS | low polyreactivity |
| QVQLVESGGGLVQAGGSLRLSCAASGSTIYTYVMGWYRPAPGKERELVAAISWSGSSTYYADSVKGRFTISRDNAKNTVYLQMNSLKPEDTAVYYCNAQYRRGWWGVEYGYWGQGTQVTVSS | low polyreactivity |
| QVQLVESGGGLVQAGGSLRLSCAASGSTLARNVMGWYRQAPGKERELVAAISTSGGITYYADSVKGRFTISRDNAKNTVYLQMNSLKPEDTADYYCAKYYYNPYSKMDYWGQGTQVTVSS | low polyreactivity |
| QVQLVESGGGLVQAGGSLRLSCAASGSTLASYAMGWYRQAPGKERELVAAISLSGGSTYYADSVKGRFTISRDNAKNTVYLQMNSLKPEDTAVYYCAAETVRYEWGESPAALFDYWGQGTQVTVSS | low polyreactivity |
| QVQLVESGGGLVQAGGSLRLSCAASGSTLASYAMGWYRQAPGKERELVAAISSSGGSTYYADSVKGRFTISRDNAKNTVYLQMNSLKPEDTAVYYCAARTRTRYGIDYYWGQGTQVTVSS | high polyreactivity |
| QVQLVESGGGLVQAGGSLRLSCAASGSTLATNAMGWYRQAPGKERELVAYADSVKGRFTISRDNAKNTVYLQMNSLKPEDTAVYYCNVEAPGRAQYGYPQGDYWGQGTQVTVSS | low polyreactivity |
| QVQLVESGGGLVQAGGSLRLSCAASGSTLAVYAMGSYRQAPGKERELVAAISKRGGTTYYADSVKGRFTISRDNAKNTVYLQMYSLKPDDTAVYYCARESYYRGNYDYDYWGQGTQVTVSS | high polyreactivity |
| QVQLVESGGGLVQAGGSLRLSCAASGSTLDRNTMGWYRQAPGKERELVAAITSSGGRTYYADSVKGRFTISRDNEKNTVYFQMNSLKPDDTAVYYCNNDYWKRPVDEYDYWGQGTQVTVSS | high polyreactivity |
